Patent US20230071371A1 (Scripps Research, published 2023)
Bridges are numbered along the chain shown (N, C = ends). Where no end group is shown, it is not given here. L1 = not defined here; L3 = not defined here; L4 = not defined here; L5 = not defined here

T1: GPR10 (UniProt P49683 1-370, limits assumed)
T1 sequence (looked up): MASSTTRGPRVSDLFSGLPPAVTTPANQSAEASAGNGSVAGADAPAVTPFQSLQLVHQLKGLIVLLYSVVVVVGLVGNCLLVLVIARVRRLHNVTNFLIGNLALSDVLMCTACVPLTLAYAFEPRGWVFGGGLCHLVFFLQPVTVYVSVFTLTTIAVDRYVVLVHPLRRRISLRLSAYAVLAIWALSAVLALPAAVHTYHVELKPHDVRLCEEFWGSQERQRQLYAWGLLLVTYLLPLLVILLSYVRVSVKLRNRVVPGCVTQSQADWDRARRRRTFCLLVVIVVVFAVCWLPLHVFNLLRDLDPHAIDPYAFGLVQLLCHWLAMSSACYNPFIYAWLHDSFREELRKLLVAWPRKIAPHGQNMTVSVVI

B1: SEQ ID NO 85 (peptide)
peptide: TPDINPCWYTGRGCRPVGRF-NH2
modifications: cysteine pairing not given here
B2: Conjugate 209 (peptide)
peptide: TPDINPCWYTGRGCRPVGRF-NH2
modifications: linker 7-14 via L1; reading uncertain
B3: Conjugate 222 (peptide)
peptide: TPDINPCWYTGRGCRPVGRF-NH2
modifications: linker 7-14 via L3; reading uncertain
B4: Conjugate 223 (peptide)
peptide: TPDINPCWYTGRGCRPVGRF-NH2
modifications: linker 7-14 via L4; reading uncertain
B5: Conjugate 224 (peptide)
peptide: TPDINPCWYTGRGCRPVGRF-NH2
modifications: linker 7-14 via L5; reading uncertain
B6: SEQ ID NO 86 (peptide)
peptide: TPDINPACYTGRGICPVGRF-NH2
modifications: cysteine pairing not given here
B7: Conjugate 210 (peptide)
peptide: TPDINPACYTGRGICPVGRF-NH2
modifications: linker 8-15 via L1; reading uncertain
B8: SEQ ID NO 87 (peptide)
peptide: TPDINPAWCTGRGIRCVGRF-NH2
modifications: cysteine pairing not given here
B9: Conjugate 211 (peptide)
peptide: TPDINPAWCTGRGIRCVGRF-NH2
modifications: linker 9-16 via L1; reading uncertain
B10: SEQ ID NO 88 (peptide)
peptide: TPDINPAWYCGRGIRPCGRF-NH2
modifications: cysteine pairing not given here
B11: Conjugate 212 (peptide)
peptide: TPDINPAWYCGRGIRPCGRF-NH2
modifications: linker 10-17 via L1; reading uncertain
B12: SEQ ID NO 89 (peptide)
peptide: CRAHQHSCETRTPDINPAWYTGRGIRPVGRF-NH2
modifications: cysteine pairing not given here
B13: Conjugate 225 (peptide)
peptide: CRAHQHSCETRTPDINPAWYTGRGIRPVGRF-NH2
modifications: linker 1-8 via L1; reading uncertain
B14: Conjugate 233 (peptide)
peptide: CRAHQHSCETRTPDINPAWYTGRGIRPVGRF-NH2
modifications: linker 1-8 via L3; reading uncertain
B15: Conjugate 234 (peptide)
peptide: CRAHQHSCETRTPDINPAWYTGRGIRPVGRF-NH2
modifications: linker 1-8 via L4; reading uncertain
B16: Conjugate 235 (peptide)
peptide: CRAHQHSCETRTPDINPAWYTGRGIRPVGRF-NH2
modifications: linker 1-8 via L5; reading uncertain
B17: SEQ ID NO 91 (peptide)
peptide: SRAHQHSMCTRTPDICPAWYTGRGIRPVGRF-NH2
modifications: cysteine pairing not given here
B18: Conjugate 227 (peptide)
peptide: SRAHQHSMCTRTPDICPAWYTGRGIRPVGRF-NH2
modifications: linker 9-16 via L1; reading uncertain
B19: SEQ ID NO 92 (peptide)
peptide: SRAHQHSMETRTCDINPAWCTGRGIRPVGRF-NH2
modifications: cysteine pairing not given here
B20: Conjugate 228 (peptide)
peptide: SRAHQHSMETRTCDINPAWCTGRGIRPVGRF-NH2
modifications: linker 13-20 via L1; reading uncertain
B21: Conjugate 239 (peptide)
peptide: SRAHQHSMETRTCDINPAWCTGRGIRPVGRF-NH2
modifications: linker 13-20 via L3; reading uncertain
B22: Conjugate 240 (peptide)
peptide: SRAHQHSMETRTCDINPAWCTGRGIRPVGRF-NH2
modifications: linker 13-20 via L4; reading uncertain
B23: Conjugate 241 (peptide)
peptide: SRAHQHSMETRTCDINPAWCTGRGIRPVGRF-NH2
modifications: linker 13-20 via L5; reading uncertain
B24: SEQ ID NO 93 (peptide)
peptide: SRAHQHSMETRTPDCNPAWYTCRGIRPVGRF-NH2
modifications: cysteine pairing not given here
B25: Conjugate 229 (peptide)
peptide: SRAHQHSMETRTPDCNPAWYTCRGIRPVGRF-NH2
modifications: linker 15-22 via L1; reading uncertain
B26: Conjugate 242 (peptide)
peptide: SRAHQHSMETRTPDCNPAWYTCRGIRPVGRF-NH2
modifications: linker 15-22 via L3; reading uncertain
B27: Conjugate 243 (peptide)
peptide: SRAHQHSMETRTPDCNPAWYTCRGIRPVGRF-NH2
modifications: linker 15-22 via L4; reading uncertain
B28: Conjugate 244 (peptide)
peptide: SRAHQHSMETRTPDCNPAWYTCRGIRPVGRF-NH2
modifications: linker 15-22 via L5; reading uncertain
B29: SEQ ID NO 94 (peptide)
peptide: SRAHQHSMETRTPDICPAWYTGCGIRPVGRF-NH2
modifications: cysteine pairing not given here
B30: Conjugate 230 (peptide)
peptide: SRAHQHSMETRTPDICPAWYTGCGIRPVGRF-NH2
modifications: linker 16-23 via L1; reading uncertain
B31: Conjugate 245 (peptide)
peptide: SRAHQHSMETRTPDICPAWYTGCGIRPVGRF-NH2
modifications: linker 16-23 via L3; reading uncertain
B32: Conjugate 246 (peptide)
peptide: SRAHQHSMETRTPDICPAWYTGCGIRPVGRF-NH2
modifications: linker 16-23 via L4; reading uncertain
B33: Conjugate 247 (peptide)
peptide: SRAHQHSMETRTPDICPAWYTGCGIRPVGRF-NH2
modifications: linker 16-23 via L5; reading uncertain
B34: SEQ ID NO 95 (peptide)
peptide: SRAHQHSMETRTPDINPCWYTGRGCRPVGRF-NH2
modifications: cysteine pairing not given here

Molecular target: T1, GPR10
Assay: cell-based or functional assay

Binder | GPR10 EC50
B1 | 33 nM
B2 | 10 nM
B3 | 5.2 nM
B4 | > 1000 nM
B5 | > 1000 nM
B6 | 6800 nM
B7 | 720 nM
B8 | 120 nM
B9 | 160 nM
B10 | 1600 nM
B11 | > 10000 nM
B12 | 16 nM
B13 | 24 nM
B14 | 17 nM
B15 | 230 nM
B16 | 330 nM
B17 | 41 nM

Binder | GPR10 EC50
B18 | 85 nM
B19 | 18 nM
B20 | 40 nM
B21 | 17 nM
B22 | 630 nM
B23 | 1500 nM
B24 | 17 nM
B25 | 10 nM
B26 | 6.1 nM
B27 | 80 nM
B28 | 230 nM
B29 | 70 nM
B30 | 29 nM
B31 | 23 nM
B32 | 360 nM
B33 | 2800 nM
B34 | 33 nM
